Data published in the supplement of paper PMC10567573.

B1: ZBTB22 (parent)
chain: RPFDCPVCNKKFKMKHHLTEHMKT

Variants of: B1
Experiment: protein stability index of a GFP-peptide fusion (GPS, HEK-293T) (PSI 1-6); higher = more stable
Conditions: c terminus: a fixed tail appended
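Note: lentivirally expressed fusions sorted by FACS into six bins by GFP to DsRed ratio, PSI derived from sequencing read proportions per bin multiplied by bin number.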

First: RPFDCPVCNKKFKMKHHLTEHDKT [M22D]
Second: RPFDCPVCNKKFKMKHHLTEHTKT [M22T]
The protein stability index of the first is higher: 3.1 for the first, 2.38 for the second.

Going from RPFDCPVCNKKFKMKHHLTEHCKT [M22C] to RPFDCPVCNKKFKMKHHLTEHIKT [M22I], the protein stability index falls from 2.93 to 2.15.

Compared with RPFDCPVCNKKFKMKHHLTEHKKT [M22K], RPFDCPVCNKKFKMKHHLTEHYKT [M22Y] is lower in protein stability index: 2.92 for the first, 2.72 for the second.

Compared with RPFDCPVCNKKFKMKHHLTEHEKT [M22E], RPFDCPVCNKKFKMKHHLTEHGKT [M22G] is lower in protein stability index: 3 for the first, 2.68 for the second.

Compared with RPFDCPVCNKKFKMKHHLTEHFKT [M22F], RPFDCPVCNKKFKMKHHLTEHNKT [M22N] is higher in protein stability index: 2.3 for the first, 2.62 for the second.

Going from RPFDCPVCNKKFKMKHHLTEHWKT [M22W] to RPFDCPVCNKKFKMKHHLTEHAKT [M22A], the protein stability index rises from 2.43 to 2.48.

First: RPFDCPVCNKKFKMKHHLTEHHKT [M22H]
Second: RPFDCPVCNKKFKMKHHLTEHVKT [M22V]
The protein stability index of the first is higher: 2.75 for the first, 1.89 for the second.

First: RPFDCPVCNKKFKMKHHLTEHRKT [M22R]
Second: RPFDCPVCNKKFKMKHHLTEHQKT [M22Q]
The protein stability index of the first is lower: 2.48 for the first, 2.71 for the second.

Going from RPFDCPVCNKKFKMKHHLTEHSKT [M22S] to RPFDCPVCNKKFKMKHHLTEHPKT [M22P], the protein stability index rises from 2.29 to 2.48.

First: RPFDCPVCNKKFKMKHHLTEHLKT [M22L]
Second: RPFDCPVCNKKFKMKHHLSEHMKT [T19S]
The protein stability index of the first is higher: 2.95 for the first, 2.35 for the second.

First: RPFDCPVCNKKFKMKHHLNEHMKT [T19N]
Second: RPFDCPVCNKKFKMKHHLEEHMKT [T19E]
The protein stability index of the first is lower: 2.88 for the first, 3.39 for the second.

Going from RPFDCPVCNKKFKMKHHLAEHMKT [T19A] to RPFDCPVCNKKFKMKHHLREHMKT [T19R], the protein stability index rises from 2.89 to 3.34.

Going from RPFDCPVCNKKFKMKHHLVEHMKT [T19V] to RPFDCPVCNKKFKMKHHLHEHMKT [T19H], the protein stability index falls from 3 to 2.8.

First: RPFDCPVCNKKFKMKHHLDEHMKT [T19D]
Second: RPFDCPVCNKKFKMKHHLKEHMKT [T19K]
The protein stability index of the first is higher: 3.19 for the first, 2.48 for the second.

Compared with RPFDCPVCNKKFKMKHHLIEHMKT [T19I], RPFDCPVCNKKFKMKHHLQEHMKT [T19Q] is lower in protein stability index: 3.07 for the first, 2.33 for the second.

First: RPFDCPVCNKKFKMKHHLGEHMKT [T19G]
Second: RPFDCPVCNKKFKMKHHLLEHMKT [T19L]
The protein stability index of the first is higher: 3.17 for the first, 2.8 for the second.

First: RPFDCPVCNKKFKMKHHLCEHMKT [T19C]
Second: RPFDCPVCNKKFKMKHHLYEHMKT [T19Y]
The protein stability index of the first is higher: 4.25 for the first, 2.41 for the second.

Compared with RPFDCPVCNKKFKMKHHLFEHMKT [T19F], RPFDCPVCNKKFKMKHHLMEHMKT [T19M] is higher in protein stability index: 2.28 for the first, 3.18 for the second.

Going from RPFDCPVCNKKFKMKHHLPEHMKT [T19P] to RPFDCPVCNKKFKMKHHLWEHMKT [T19W], the protein stability index falls from 2.48 to 2.02.

First: RPFDCPVCNKKFKMKHHRTEHMKT [L18R]
Second: RPFDCPVCNKKFKMKHHCTEHMKT [L18C]
The protein stability index of the first is lower: 2.89 for the first, 4.01 for the second.

Going from RPFDCPVCNKKFKMKHHWTEHMKT [L18W] to RPFDCPVCNKKFKMKHHATEHMKT [L18A], the protein stability index rises from 2.59 to 2.93.

Compared with RPFDCPVCNKKFKMKHHYTEHMKT [L18Y], RPFDCPVCNKKFKMKHHQTEHMKT [L18Q] is higher in protein stability index: 2.25 for the first, 2.58 for the second.

Going from RPFDCPVCNKKFKMKHHHTEHMKT [L18H] to RPFDCPVCNKKFKMKHHMTEHMKT [L18M], the protein stability index falls from 3.08 to 2.19.

Going from RPFDCPVCNKKFKMKHHNTEHMKT [L18N] to RPFDCPVCNKKFKMKHHETEHMKT [L18E], the protein stability index rises from 2.59 to 2.78.

Compared with RPFDCPVCNKKFKMKHHITEHMKT [L18I], RPFDCPVCNKKFKMKHHGTEHMKT [L18G] is higher in protein stability index: 2.1 for the first, 3.36 for the second.

Compared with RPFDCPVCNKKFKMKHHDTEHMKT [L18D], RPFDCPVCNKKFKMKHHPTEHMKT [L18P] is lower in protein stability index: 2.39 for the first, 2.37 for the second.

Going from RPFDCPVCNKKFKMKHHKTEHMKT [L18K] to RPFDCPVCNKKFKMKHHFTEHMKT [L18F], the protein stability index falls from 2.78 to 2.7.

Going from RPFDCPVCNKKFKMKHHVTEHMKT [L18V] to RPFDCPVCNKKFKMKHHSTEHMKT [L18S], the protein stability index falls from 3.5 to 2.44.

Going from RPFDCPVCNKKFKMKHHTTEHMKT [L18T] to RPFDCPVCNKKFKRKHHLTEHMKT [M14R], the protein stability index rises from 2.67 to 3.14.

Going from RPFDCPVCNKKFKQKHHLTEHMKT [M14Q] to RPFDCPVCNKKFKLKHHLTEHMKT [M14L], the protein stability index falls from 3.17 to 2.46.

Going from RPFDCPVCNKKFKCKHHLTEHMKT [M14C] to RPFDCPVCNKKFKVKHHLTEHMKT [M14V], the protein stability index falls from 3.9 to 2.58.

First: RPFDCPVCNKKFKIKHHLTEHMKT [M14I]
Second: RPFDCPVCNKKFKWKHHLTEHMKT [M14W]
The protein stability index of the first is higher: 2.35 for the first, 2.26 for the second.

Compared with RPFDCPVCNKKFKHKHHLTEHMKT [M14H], RPFDCPVCNKKFKSKHHLTEHMKT [M14S] is higher in protein stability index: 3.48 for the first, 3.96 for the second.

Compared with RPFDCPVCNKKFKNKHHLTEHMKT [M14N], RPFDCPVCNKKFKYKHHLTEHMKT [M14Y] is lower in protein stability index: 3.89 for the first, 3.1 for the second.

Compared with RPFDCPVCNKKFKPKHHLTEHMKT [M14P], RPFDCPVCNKKFKKKHHLTEHMKT [M14K] is higher in protein stability index: 2.5 for the first, 2.93 for the second.

Compared with RPFDCPVCNKKFKTKHHLTEHMKT [M14T], RPFDCPVCNKKFKEKHHLTEHMKT [M14E] is lower in protein stability index: 3.75 for the first, 3.72 for the second.

Going from RPFDCPVCNKKFKDKHHLTEHMKT [M14D] to RPFDCPVCNKKFKFKHHLTEHMKT [M14F], the protein stability index falls from 3.75 to 2.84.

Going from RPFDCPVCNKKFKAKHHLTEHMKT [M14A] to RPFDCPVCNKKFKGKHHLTEHMKT [M14G], the protein stability index falls from 3.09 to 2.69.

Going from RPFDCPVCNKKFKMNHHLTEHMKT [K15N] to RPFDCPVCNKKFKMSHHLTEHMKT [K15S], the protein stability index rises from 2.12 to 2.22.

First: RPFDCPVCNKKFKMDHHLTEHMKT [K15D]
Second: RPFDCPVCNKKFKMTHHLTEHMKT [K15T]
The protein stability index of the first is higher: 2.85 for the first, 1.87 for the second.

First: RPFDCPVCNKKFKMCHHLTEHMKT [K15C]
Second: RPFDCPVCNKKFKMWHHLTEHMKT [K15W]
The protein stability index of the first is higher: 4.13 for the first, 2.47 for the second.

Compared with RPFDCPVCNKKFKMGHHLTEHMKT [K15G], RPFDCPVCNKKFKMYHHLTEHMKT [K15Y] is lower in protein stability index: 2.78 for the first, 2.37 for the second.

Compared with RPFDCPVCNKKFKMRHHLTEHMKT [K15R], RPFDCPVCNKKFKMQHHLTEHMKT [K15Q] is higher in protein stability index: 2.19 for the first, 2.26 for the second.

First: RPFDCPVCNKKFKMIHHLTEHMKT [K15I]
Second: RPFDCPVCNKKFKMFHHLTEHMKT [K15F]
The protein stability index of the first is lower: 1.76 for the first, 2.39 for the second.

Going from RPFDCPVCNKKFKMLHHLTEHMKT [K15L] to RPFDCPVCNKKFKMMHHLTEHMKT [K15M], the protein stability index falls from 2.65 to 2.24.

Going from RPFDCPVCNKKFKMVHHLTEHMKT [K15V] to RPFDCPVCNKKFKMPHHLTEHMKT [K15P], the protein stability index rises from 2.62 to 2.67.

First: RPFDCPVCNKKFKMEHHLTEHMKT [K15E]
Second: RPFDCPVCNKKFKMHHHLTEHMKT [K15H]
The protein stability index of the first is higher: 3.73 for the first, 2.24 for the second.
